Molecular target: T1, TOP-2 [R828C]::3xFLAG, Q23670
T1 chain: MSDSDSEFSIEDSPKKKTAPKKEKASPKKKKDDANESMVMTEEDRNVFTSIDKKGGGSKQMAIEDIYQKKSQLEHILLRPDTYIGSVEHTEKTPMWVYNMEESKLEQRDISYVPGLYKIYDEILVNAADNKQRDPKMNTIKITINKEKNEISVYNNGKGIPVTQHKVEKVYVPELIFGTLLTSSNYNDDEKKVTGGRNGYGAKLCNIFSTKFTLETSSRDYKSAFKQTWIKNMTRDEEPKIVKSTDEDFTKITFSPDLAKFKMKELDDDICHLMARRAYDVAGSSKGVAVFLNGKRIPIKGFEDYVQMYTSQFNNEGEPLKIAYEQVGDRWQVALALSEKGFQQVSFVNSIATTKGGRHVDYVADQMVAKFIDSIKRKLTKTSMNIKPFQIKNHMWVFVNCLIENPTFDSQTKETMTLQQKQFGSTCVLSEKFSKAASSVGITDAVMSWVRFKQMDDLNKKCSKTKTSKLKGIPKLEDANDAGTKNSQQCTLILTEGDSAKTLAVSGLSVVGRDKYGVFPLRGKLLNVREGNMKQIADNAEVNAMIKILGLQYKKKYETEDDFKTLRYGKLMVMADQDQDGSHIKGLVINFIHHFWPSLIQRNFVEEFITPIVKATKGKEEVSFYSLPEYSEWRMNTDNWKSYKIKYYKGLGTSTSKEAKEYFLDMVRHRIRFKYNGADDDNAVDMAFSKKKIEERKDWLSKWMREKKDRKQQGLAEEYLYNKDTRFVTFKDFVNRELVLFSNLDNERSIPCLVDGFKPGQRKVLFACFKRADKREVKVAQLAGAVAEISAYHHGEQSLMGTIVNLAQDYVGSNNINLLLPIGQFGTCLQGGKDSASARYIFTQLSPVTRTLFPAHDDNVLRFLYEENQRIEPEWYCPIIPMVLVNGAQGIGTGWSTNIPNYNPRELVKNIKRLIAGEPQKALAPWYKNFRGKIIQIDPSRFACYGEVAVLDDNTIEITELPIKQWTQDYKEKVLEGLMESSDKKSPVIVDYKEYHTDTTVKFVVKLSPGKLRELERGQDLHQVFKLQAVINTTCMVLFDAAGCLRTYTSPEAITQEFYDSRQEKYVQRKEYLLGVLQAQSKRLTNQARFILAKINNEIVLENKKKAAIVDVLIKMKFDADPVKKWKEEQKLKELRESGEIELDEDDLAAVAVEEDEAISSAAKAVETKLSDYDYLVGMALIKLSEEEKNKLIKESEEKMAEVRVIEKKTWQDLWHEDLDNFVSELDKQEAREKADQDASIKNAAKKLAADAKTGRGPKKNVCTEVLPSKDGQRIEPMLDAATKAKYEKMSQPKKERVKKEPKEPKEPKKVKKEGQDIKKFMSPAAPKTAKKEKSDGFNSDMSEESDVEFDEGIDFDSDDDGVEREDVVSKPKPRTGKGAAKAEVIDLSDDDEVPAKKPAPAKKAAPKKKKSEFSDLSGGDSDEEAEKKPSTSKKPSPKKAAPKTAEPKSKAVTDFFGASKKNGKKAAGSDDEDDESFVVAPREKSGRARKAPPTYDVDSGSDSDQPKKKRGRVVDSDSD
Assay: co-immunoprecipitation (anti-FLAG magnetic agarose beads) with anti-RFP immunoblot, band quantification
Conditions: chain shown with the change;; parent: est. 1.0; read off a plot

B1: m1; m2 TDPT-1:G117R; TOP-2:R828C (protein)
chain: MSNSDDEIQEIEAKRQKMSQEDSEVEIEILDEPEQGKLKNSSMSDEQKLHEFAIITATDEAFAQSILQDVDWDLKKALDVFYGSEAFAEARSAAVMGASSSMASSGAAVMTAEDLKRFEVSVMSWNIDGLDGRSLLTRMKAVAHIVKNVNPDILFLQEVVDRDLAPIDKLQSLYKIYYSNKGCQYYTAILVSKMFDVEKHDVIHFQNSGMYRTLQILEGSIGGLKVFLLNTHLESTREHRPQRCAQFGFCMDKVREIIAQNPGALVFFGGDLNLRDEEVSRVPDGVKDAWEAAGSDNKTKFTWDTFKNDNKQGFHGAKMRFDRLYWSGPLDKVKFTLEGRQRIRSCLCFPSDHWAINATFFA
ratio to parent: 0.33
